From the nanobody polyreactivity screen of Harvey et al. (2022) come the findings set out here.

A short description of the data set: yeast display, Sf9 membrane polyspecificity reagent, FACS + sequencing; frameworks hold sequencing errors. The method in brief: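 Nanobodies from a synthetic yeast display library (Saccharomyces cerevisiae BJ5465), induced 36–48 hours with galactose, were stained 1 hour at 4 °C with 10% biotinylated, detergent-solubilized Sf9 membrane reagent, enriched on streptavidin microbeads, then FACS-sorted. Anti-HA (expression) and streptavidin (reagent binding) fluorescence set low and high (top ~1%) gates. Polyreactivity labels come from the gate of origin. Genes were colony-PCR amplified, MiSeq 2 × 250 sequenced and filtered by CDR length.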
Turning to “QVQLVESGGGLVQAGGSLRLSCAASGRISIKNAMGWYRQAPGQERELVAAIRWSADSTYYADSVKGRFTISRDNAKTTVYLQMNSLKPEDTAVYYCAATGRLRYYWGQGTQVNVSS”, the “polyreactivity (PSR sort gate)” value is reported as “high polyreactivity”.
Under “QVQLVESGGGLVQAGGSLRLSCAASGFIFTTYAMGWYRQAPGKERELVAAISSSGTTYYADSVKGRFTISRDNAKNTVYLQMNSLKPEDTAVYYCAARRQFRSYQQRLYYWGQGTQVTVSS” stands “low polyreactivity”; under “QVQLVESGGGLVQAGCSLRLSCAASGRIFSRYTMGWSRQAPGKERELVAAISSGGSTYYADSVKGRFTISLDNAKNTVYFQMNSLKPEDTAVYYCNTRYVGQRSTWVDQVRRYDYCGQGTQVTVSS”, “high polyreactivity”.
Under “QVQLVESGGGLVQAGGSLRLSCAASGRTFRRNAMGWYRQAPGKERELVAAISSRGGSTYYADSVKGRFTISRDNAKNSVYLQMNSLKPEDTAVYYCNKGTPPTGTLGDYEYWGQGTQVTVSS” stands “high polyreactivity”; under “QVQLVESGGGLFQAGGSLRLSCAASGSISYYNAMGWYRQAPGKERELVATITDSGGSTYYADSVKGRFTISRDIAKNTVYLQMISLKPEDTAVYYCAVDFSEWYSIYDYWGQGTQVTVSS”, “low polyreactivity”; under “QVQLVESGGGLVQAGGSLRLSCAAYGSILGIYAMGGYRQAPGKERELVAAIRTSSASTYYADSVKGRFTISRDNAKNTVYLQMNSLKPEDSAVYYCAAYAFSYTPYYSWGQGTQVTVSS”, “high polyreactivity”.
Regarding “QVQLVESGGGLVQAGGSLRLSCAASGRTFWRYAMGWYRQAPGKERELVARISSGGSTYYADSVKGRFTISRDNAKNTVYLQMNSLKPEDTAVYYCAVLSRHRRVPWYRYNYWGQGTQVTVSS”, the “polyreactivity (PSR sort gate)” value is listed as “low polyreactivity”.
As for “QVQLVESGGGLVQAGGSLRLSCAASGITFDDYVMGWYRQAPGKERELVAAITRSGGRTYYADSVKGRFTISRDNAKNTVDLQMNSLKPEVTAVYYCAARHRDNRFDYWGQGTQVTVSS”, the “polyreactivity (PSR sort gate)” value is given as “high polyreactivity”.
On to “QVQLVESGGGLVQAGGSLRLSCAASGRTSGFNTMGWYRPAPGKEREMVAAISFSGGSTYYADSVKGRFTISRDNAKNTVYLQMNSLKPEDTAVYYCNALYRYLYRSGDYWGQGTQVTVSS”, for which the “polyreactivity (PSR sort gate)” value is listed as “low polyreactivity”.
As for “QVQLVESGGGLVQAGGSLRLSSAASGRTFAVYAMGWYRQAPGKERELVAAISSGGSTYYADSVKGRFTISRDNAKNTVYLPMNSLKPEDTAVYYCTARWGYRRGDWGQGTQVTVSS”, the “polyreactivity (PSR sort gate)” value was “high polyreactivity”.
To “QVQLVESGGGLVQAGGSLRLSCAASGIILYYYAMGWYRQAPGKERELVASISRGDSTNYADSVKGRFTISRDNAKNTVYLQMNSLKPEDTAVYCNKDYLPSLYRGFDYWGQGTQVTVSS” belongs “low polyreactivity”.
“QVQLVESGGGLVQPGGSLRLSCAASGSTFSWNAMGWYRQAPGKERELVASITWGGGSTYYADSVKGRFTISRDTAKNTVYLQMNSLKPEDTAVYYSAAKYGTSKYSRYYYWGQGTQVTVSS”: the “polyreactivity (PSR sort gate)” value is “high polyreactivity”.
To “QVQLVESGGGLVQAGGSLRLSCAASGITFDLYAMGWYRQAPGKERELVAAISISSTSTYYADSVKGRFTISRDNAKNTVYLQMNSLKPEDTAVYYCNAVPSSKTFWFDYWGQGTQVTVSS” belongs “low polyreactivity”; to “QVQLVESGGGLVQAGGSLRLSCAASGFTFHYYTMAWYRQAPGKEREFVAAMSKSGGRTYYADSVKGRFTISRDKAKNTVYLQMNSLKPEDTAVYYCSTVGYWRNRHDYWGQGTQVTVSS”, “high polyreactivity”; to “QVQLVESGGGLVQAGGSLRLSCAASGFTFGGNAMGWYRQAPGKERELVADITWSGGSTYYADSVKGRFTISRDNAKNTVYLQMNSLKPEDTAVYYCNTVRYPSSNSGLDYWGQGTQVTVSS”, “high polyreactivity”.
As for “QLQLVESGGGLVQAGGSLRLSCAASVRTFQNYAMGWYRQAPGKEREFVAAITWRVGTTYYADSVKGRFTISRDNAKNTVYLQMNSLKPEDTAVYYCAARSRTVRYDYWGQGSQVTVSS”, the “polyreactivity (PSR sort gate)” value is “high polyreactivity”.
With “QVQLVESGGGLVQAGGSLRLSCAASGLTFYAYAMGWYRQAPVKERELVAAISVRGRSTYYADSVKGRFTISRDIAKNTVFLQMNSLKPEDTAVYYCAAEFYRVQNFQFYYWGQGTQVTVSS”, the “polyreactivity (PSR sort gate)” value is reported as “high polyreactivity”.
On to “QVQLVESGGGLVQAGGRLRLSCAPSGSTFPPYAMGWYRQAPGKERELVADITRRGASTYYADSVKGRFTISRDNAKNTVYLQMNSLKPEDTAVYYCAARFYYQYYSGFDYWGQGTQVTVST”, for which the “polyreactivity (PSR sort gate)” value is on record as “high polyreactivity”.
To “QVQLVESGGGLVQAGGSLRLSCAASGSTLGRYAMGWYRQAPGKERELVAAISSSGTTYYADSVKGRFTISRDNAKNTVYFQMNSLKPEDTAVYYCNARGFRVARHAAWYQYYYWGQGTQVTVSS” belongs “high polyreactivity”; to “QVQLVESGGGLVQAGGSLRLSCAASGLTFHSYAMGWYRQAPGKERELVAAINYSGGRTDYADSVKGRFTISRDNALKSVYLQMNSLQPADTAVYFCAAQRASAYYCGQGTQVTVSS”, “high polyreactivity”; to “QVQLVESGGGLVQAGGSLRLSCAASGRIFDRYAMGWYRLAPGKERELVAAITTSSGGSTYYADSVKGRFTISRDNAMNTVYLQMQSLNPEDTAVYYCAADRRYNVIGEFGYWGQVTQVTVSS”, “low polyreactivity”.
Under “QVQLVESGGGLVQAGGTLRLSCAASGSIFRGNGMGWYRQAPGKERELVAAISRSGGRTYYADSVKGRFTFSRDNAKNTVYLQMNSLKPEDTAVYYCAAVPPYNYRFRVYYWGQGSQVTVSS” stands “high polyreactivity”.
Under “QVQLVESGGGLVQAGGSRRVSCAASGITFPNYAMGWYRQAPGKERELVAAITGSGGSTYYADSVKGRFTISRDNAKNTVYVQMNSLKPEDTAVYYCNAVYYRYIRGFYYWGPGTQVTVSS” stands “high polyreactivity”; under “QVQHVESGGGLVQAGGSLRLSCAASGSTQTRNPMGWYRKAPGKERELVAAITQRGGSTYYADSVKGRFTISRDNAKNTVYLQMNSLKPEDTAVYYCAKVPSVKYRSIWVLPEYGWGQGTQVTVSS”, “low polyreactivity”; under “QVQLVESGGGLVQPGGRLRLSCAASGFTFHDYAMGWYRPAPGKERELVAAITKSGGRTYYADSVKGRFTISRDNAKNTVYLQMNSLKPEDTAVYFCAAASYRSQYDYYYWGQGTQVTVSS”, “high polyreactivity”.
In the case of “QVQLVESGGGLVQAGGSLRLSCAASGRTFGYNAMAWYRQAPRKERELVAAISRGGSTNYADSVKGRFTISRDNAKNTVYLQMNSLKPEDTAVYYCAAYDWRVLWGYDYWGQGTQVTVSS”, the “polyreactivity (PSR sort gate)” value is listed as “low polyreactivity”.
For the sequence “QVQLVESGGGLVQAGGRLRLSCAASGIIIDYYTMGWYRQAPGKERELVAAINKSGGSTYADSVKGRFTISRDNAKNTVYLQMNSLKPEDTAVYYCAAEVDYSYWPEYARKYYYWGQGTQVTVSS”, the “polyreactivity (PSR sort gate)” value is listed as “low polyreactivity”.
For the sequence “QVQLVESGGGLVQAGGSLRLSCAASGRIFHWYVMGWYRQAPGKERELVAAISWSSGSTYADSVKGRFTISRDNAKNTVYLQMNSLKPEDTAVYYCNAKTYYPPFGYWGQGTQVTVSS”, the “polyreactivity (PSR sort gate)” value was “low polyreactivity”.
To “QVQLVESGGGLVQAGGNLRLSCAASGNIFYVYAMGWYRQAPGKERELVAAITRSGGRTYYADSVKGRFTISRDNAKNTVYLQMTSLKPEDTAVYYCAADRGVTRQKMDYWGQGTQVTVSS” belongs “low polyreactivity”; to “QVQLVESGGGLVQAGGSLRLSCAASGSTFGYYAMGWNRQAPGKERELVATITWSGGSTNYADSVKGRFTISRDNAKNTVYLQMYSLKPEDTAVYYCAADLKYWYFGLAFIEVDYWGQGTQVTVSS”, “low polyreactivity”.
For “QVQLVESGGGLVQAGGCLRLSCAASVRTFYYYAMGWYRQAPGKEMELVAAITSTGGSTYYADSVKGRFTISRDNAKNTVYLQMNSLKPEDTAVYYCNTDPYTTQWYTTWFEYWGQGTQVTVSS”, the “polyreactivity (PSR sort gate)” value is recorded as “low polyreactivity”.
For “QVQLVESGGGLVQAGGSLRLSCAASVFTFSPNAMGWYRQAPGKERELVAAISKRGASTYYADSVKGRFTISRDNAKNTVYLQMNSLKPEDTAVYYCNVGASARKPYDYWGQGTQVTVSS”, the “polyreactivity (PSR sort gate)” value is given as “high polyreactivity”.
Take “QVQLVESGGGLVQAGGSLRLSCAASGRTFQPNVMGLFRQEPGKESELVAAISWSGASTYYADSVKGRFTISRDNAKNTVYLQMNSLKPEDTSVYYCAAEFPFPPACDYWGQGTQVTVSS”: the “polyreactivity (PSR sort gate)” value is “low polyreactivity”.
Under “QVQLVESGGGLVQAGGSLRLSCADSGSTFVSNTMGWYRQAPGKERELVAAISSSGGSTYYADSVKGRFSISRDNAKNTVYLQMNSLKPEDTAVYYCAAYYRAYRRDYYWGQGTQVTVSS” stands “high polyreactivity”; under “QVQLVESGGGLVQAGGSLRISCAASGSTFYKYDMGWYRQAPGKEREFVAVISRSGGNTYYADSVKGRFTISRDNAKNTVYLQMNSLKPEDTAVSYCAADNYPDEYDYWGQGTQVTVSS”, “low polyreactivity”.
Under “QVQLVESGGGLVQAGGSLRLSCAASGRIFRFYAMGWYRQAPGKERELVAVISTGGRTYYADSVKGRFTISRDNAKNTVYLQMNSLKPEDTAVYYCAAEYTTIGRYDGWHYNYWGQGTQVTVSS” stands “high polyreactivity”; under “QVQLVESGGGLVQAGGSLRLSCAASGRIFSGYAMGWYRKAPGKERELVAAINRGGDTNYADSVKGRFTISRDNAKNTVYLQMNSLKPEDTAVYYCAAQYSGRYRRVPKSYPDRGDYWGQGTQVTVSS”, “low polyreactivity”; under “QVQLVESGGGLVQAGGSLRLSCAASGFTFGSNAMGWYRQAPGKERELVAAISSRGGRTYYADSVKGRFTISRDNAKNTVYLQMNSLKPEDTAVYYCNADATVAWREQEYEYWGQGTQVTVSS”, “high polyreactivity”.
Under “QVQLVESGGGLVQAGGSLRLSCAASGSIFYLYAMGWYRPAPGKERELVARITIRGGSTYYADSVKGRFTISRDNAKNTVYLQMNSLKPEDTAVYYCAARRPYGDYDYWGQGTQVTVSS” stands “high polyreactivity”; under “QVQLVESGGGLVQAGGSLRLSCGASGSTFIYYVMGWYRQAPGKEREWVASISTGGRTYYADSVKGRFTSSRDNANHPVYVQMHSLKPEETAVDSCAGAIRSFRRPALYYWGQGTQVTVSS”, “high polyreactivity”; under “QVQLLESGRGLVQAGGSLRLSCAPSGSIFSGMVMGWYIQAPGKERELVAAISSRGGNTYYADSVKGRFTISRDNAKNTVYLQMNSLITEDTAVYYCNKVKFNWYEWGQGTQVSVSS”, “high polyreactivity”.
